Assay: Standard 12α-HSDH activity determination (NADP+-dependent oxidation of cholic acid, absorption at 340 nm)
Format: biochemical
Design: unit not given here
Settings: cell lysate
Method: The activity is defined as follows: 1 U of the enzyme corresponds to the amount of enzyme which catalyzes the reaction of 1 μmol/min of a 5 mM cholic acid solution in potassium phosphate buffer (50 mM, pH 8.0) at room temperature (i.e. about 20° C.-23° C.).
For the activity determination, 790 μl of potassium phosphate buffer (50 mM, pH 8.0), […] of cholic acid (50 mM in potassium phosphate buffer (50 mM, pH 8.0)) and 10 μl of enzyme solution to be measured were mixed in a cuvette. 100 μl of NADP^+ (2.5 mM) was added at the start of the reaction and the increase in the absorption at 340 nm was determined photometrically. The gradient over 30 s was determined at RT. Determination of the activity took place according to the Lambert-Beer's law.

[1] = E. coli BL21 (DE3), expression period 4 h
[2] = E. coli BL21 (DE3), expression period 22 h
[3] = E. coli Rosetta (DE3), expression period 4 h
[4] = E. coli Rosetta (DE3), expression period 22 h

Row | Molecule | Activity [of culture medium] [1] | Activity [of culture medium] [2] | Activity [of culture medium] [3] | Activity [of culture medium] [4]
1 | HSDH_long: long version of 12α-HSDH from Clostridium sp. group P strain 48-50, SEQ ID NO: 2, recombinantly expressed in E. coli (protein, listed as Clostridium sp.) MDFIDFKEMGRMGIFDGKVAIITGGGKAKSIGYGIAVAYAKEGANLVLTGRNEQKLLDAKEELERLYGIKVLPLAVDVTPSDESEDRVKEAVQKVIAEFGRIDVLINNAQASASGIPLSMQTKDHFDLGIYSGLYATFYYMRECYPYLKETQGSVINFASGAGLFGNVGQCSYAAAKEGIRGLSRVAATEWGKDNINVNVVCPLAMTAQLENFKLSYPEAYEKNLRGVPMGRFGDPELDIGRVCVQLGSPDFKYMSGETLTLEGGMGQRP | 12700 | 36800 | 3100 | 19500
2 | HSDH_short: N-terminally truncated short version of 12α-HSDH from Clostridium sp. group P strain 48-50, SEQ ID NO: 4 (protein) IFDGKVAIITGGGKAKSIGYGIAVAYAKEGANLVLTGRNEQKLLDAKEELERLYGIKVLPLAVDVTPSDESEDRVKEAVQKVIAEFGRIDVLINNAQASASGIPLSMQTKDHFDLGIYSGLYATFYYMRECYPYLKETQGSVINFASGAGLFGNVGQCSYAAAKEGIRGLSRVAATEWGKDNINVNVVCPLAMTAQLENFKLSYPEAYEKNLRGVPMGRFGDPELDIGRVCVQLGSPDFKYMSGETLTLEGGMGQRP | 12800 | 33000 | 3400 | 24300

From patent publication US20140147887A1, “NOVEL 12 ALPHA-HYDROXYSTEROID DEHYDROGENASES, PRODUCTION AND USE THEREOF” (PharmaZell GmbH, priority 2006, published 2014)
